Measurements from paper PMC12005725.
One block for each substance: values may come before it.

Experiments:
[1] = target: microtubule (polymerized tubulin, taxol-stabilised) (UniProt P02550)
[2] = target: microtubule (polymerized tubulin, taxol-stabilised) (UniProt P02550); assay: high-speed total internal reflection dark-field microscopy of gold-labeled kinesin; microtubules held on glass by protein A and anti-alpha-tubulin antibody, 3 nM gold-labeled kinesin, BRB12 with 20 mM KCl and 1-1000 uM ATP, 24-26 C, 20,000 fps; bound and unbound states of the gold-labeled WT head while the E236A head stays bound
[3] = target: microtubule (polymerized tubulin, taxol-stabilised) (UniProt P02550); remark: listed apart in the source
[4] = target: microtubule (polymerized tubulin, taxol-stabilised) (UniProt P02550); assay: single-molecule fluorescence (smFRET with Alexa-ATP, TIRF) on microtubules; microtubules on a poly-L-lysine-coated slide, 100 pM ATTO488-kinesin, 500 nM Alexa Fluor 647 ATP, 150 mM KCl, 20 uM taxol, BRB12, 22 C, 10 ms exposure
[5] = target: axonemes (purified from sea urchin sperm flagella) (sea urchin); assay: single-molecule fluorescence microscopy (TIRF), dwell time; reducing condition (70 mM 2-mercaptoethanol); axonemes on the slide, 200 or 500 pM GFP-kinesin in solution, 1 mM ATP, 100 mM KCl, BRB12; 10 ms resolution; k2_SMF is the inverse of the mean dwell time
[6] = target: axonemes (purified from sea urchin sperm flagella) (sea urchin); assay: single-molecule fluorescence microscopy (TIRF), dwell time; oxidized condition (no 2-mercaptoethanol); axonemes on the slide, 200 or 500 pM GFP-kinesin in solution, 1 mM ATP, 100 mM KCl, BRB12; 10 ms resolution; k2_SMF is the inverse of the mean dwell time
[7] = target: microtubule (polymerized tubulin, taxol-stabilised) (UniProt P02550); assay: stopped-flow turbidity (light scattering); reduced condition (10 mM DTT); nucleotide-free complex of 3.2 uM kinesin and 4 uM microtubule (20 uM taxol, 0.1 U/ml apyrase), 150 mM KCl added, rapidly mixed with 1 mM ATP plus 150 mM KCl; BRB25 pH 6.8, 25 C; turbidity at 340 nm, burst equation
[8] = target: microtubule (polymerized tubulin, taxol-stabilised) (UniProt P02550); assay: stopped-flow turbidity (light scattering); oxidized condition (10 uM CuCl2, 20 uM o-phenanthroline); nucleotide-free complex of 3.2 uM kinesin and 4 uM microtubule (20 uM taxol, 0.1 U/ml apyrase), 150 mM KCl added, rapidly mixed with 1 mM ATP plus 150 mM KCl; BRB25 pH 6.8, 25 C; turbidity at 340 nm, burst equation

Sequence of UniProt P02550 (P02550 whole entry, looked up): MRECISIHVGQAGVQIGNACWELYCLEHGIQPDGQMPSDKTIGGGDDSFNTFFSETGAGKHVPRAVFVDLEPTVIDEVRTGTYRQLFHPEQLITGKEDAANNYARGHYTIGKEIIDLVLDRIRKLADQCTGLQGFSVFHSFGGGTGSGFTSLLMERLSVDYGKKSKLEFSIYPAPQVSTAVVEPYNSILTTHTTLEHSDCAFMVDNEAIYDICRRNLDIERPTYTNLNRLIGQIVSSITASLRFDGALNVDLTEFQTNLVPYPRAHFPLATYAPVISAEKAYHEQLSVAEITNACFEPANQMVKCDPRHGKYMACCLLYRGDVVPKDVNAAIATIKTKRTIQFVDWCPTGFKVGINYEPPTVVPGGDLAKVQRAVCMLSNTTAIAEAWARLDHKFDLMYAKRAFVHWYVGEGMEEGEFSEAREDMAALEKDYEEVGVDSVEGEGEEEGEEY

Substance: Cys-light K339 C222/C334 monomer, oxidized (disulfide-crosslinked; rear head crosslink) (from UniProt P33176 1-339) (domain or fragment)
Km(MT) of the steady-state microtubule-activated ATPase, oxidized condition [1]: 0.2 µM

Substance: GFP-fused K339 Cys-light C4/C330 kinesin, oxidized (crosslinked) (from UniProt P33176 1-339) (domain or fragment)
k2 SMF (inverse of the mean dwell time on the microtubule, 1 mM ATP) [6]: 58.4 s⁻¹

Substance: Cys-light K339 C4/C330 monomer, reduced (un-crosslinked) (from UniProt P33176 1-339) (domain or fragment)
Km(MT) of the steady-state microtubule-activated ATPase, reduced condition [1]: 0.42 µM
k2 (ATP-induced dissociation rate from microtubule, light scattering) [7]: 68.6 s⁻¹

Substance: Cys-light K339 C47/C335 monomer, oxidized (disulfide-crosslinked; loose backward crosslink) (from UniProt P33176 1-339) (domain or fragment)
Km(MT) of the steady-state microtubule-activated ATPase, oxidized condition [1]: 0.1 µM
k2 (ATP-induced dissociation rate from microtubule, light scattering) [8]: 19.4 s⁻¹

Substance: Cys-light K339 C47/C328 monomer, reduced (un-crosslinked) (from UniProt P33176 1-339) (domain or fragment)
Km(MT) of the steady-state microtubule-activated ATPase, reduced condition [1]: 0.28 µM
k2 (ATP-induced dissociation rate from microtubule, light scattering) [7]: 51.5 s⁻¹

Substance: E236A–WT heterodimer with a 7 poly-Gly insertion (G7), WT head labeled with a gold nanoparticle (from UniProt P33176 1-490; P33176 1-490) (complex)
kcat of the inverse bound dwell time against ATP, taken as the ATP-induced detachment rate k2 of the front WT head [2]: 7.6 s^–1
Km (MT) of the microtubule-activated ATPase of the heterodimer (G7) [3]: 0.18 µM

Substance: Cys-light K339 C47/C335 monomer, reduced (un-crosslinked) (from UniProt P33176 1-339) (domain or fragment)
Km(MT) of the steady-state microtubule-activated ATPase, reduced condition [1]: 0.33 µM
k2 (ATP-induced dissociation rate from microtubule, light scattering) [7]: 41.6 s⁻¹

Substance: Cys-light K339 C47/C328 monomer, oxidized (disulfide-crosslinked; front head crosslink) (from UniProt P33176 1-339) (domain or fragment)
Km(MT) of the steady-state microtubule-activated ATPase, oxidized condition [1]: 0.13 µM
k2 (ATP-induced dissociation rate from microtubule, light scattering) [8]: 7 s⁻¹

Substance: GFP-fused K339 Cys-light C222/C334 kinesin, oxidized (rear head crosslink) (from UniProt P33176 1-339) (domain or fragment)
fold reduction of the binding frequency to the microtubule after crosslinking [6]: 6 fold
k2 SMF (inverse of the mean dwell time on the microtubule, 1 mM ATP) [6]: 57.1 s⁻¹

Substance: GFP-fused K339 Cys-light C4/C330 kinesin, reduced (from UniProt P33176 1-339) (domain or fragment)
k2 SMF (inverse of the mean dwell time on the microtubule, 1 mM ATP) [5]: 59.5 s⁻¹

The remaining lines, values ahead:

dwell time of the microtubule-bound state of the front WT head at 10 µM ATP [2]: 1.1 s
kcat of the inverse bound dwell time against ATP, taken as the ATP-promoted detachment rate k2 of the front WT head [2]: 6.3 s^–1
mean dwell time of the microtubule-bound state of the front WT head at 1 mM ATP [2]: 160 ms
mean dwell time of the unbound state of the front WT head at 1 mM ATP [2]: 11 ms
Km (MT) of the microtubule-activated ATPase of the heterodimer (G0) [3]: 0.54 µM
Substance: E236A–WT heterodimer without neck-linker extension (G0), WT head labeled with a gold nanoparticle (from UniProt P33176 1-490; P33176 1-490) (complex)

inverse of the mean dwell time for head dissociation (Alexa-ATP-bound state ending in detachment from the microtubule) [4]: 89.7 s^–1
Substance: ATTO488-labeled 'wild-type' monomer (Cys-light K349 monomeric kinesin with Cys55) (from UniProt P33176 1-349) (domain or fragment)

k2 SMF (inverse of the mean dwell time on the microtubule, 1 mM ATP) [5]: 42.1 s⁻¹
Substance: GFP-fused K339 Cys-light C47/C328 kinesin, reduced (from UniProt P33176 1-339) (domain or fragment)

dwell time of the WT head bound at the front-binding site at 1 mM ATP [2]: 111 ms
dwell time of the WT head bound at the rear-tubulin-binding site at 1 mM ATP [2]: 19 ms
kcat of the inverse bound dwell time against ATP, taken as the ATP-induced detachment rate k2 of the front WT head [2]: 9.3 s^–1
Km (MT) of the microtubule-activated ATPase of the heterodimer (G12) [3]: 0.14 µM
Substance: E236A–WT heterodimer with a 12 poly-Gly insertion (G12), WT head labeled with a gold nanoparticle (from UniProt P33176 1-490; P33176 1-490) (complex)

fold increase of the binding frequency to the microtubule after crosslinking [6]: 4 fold
k2 SMF (inverse of the mean dwell time on the microtubule, 1 mM ATP) [6]: 2.3 s⁻¹
Substance: GFP-fused K339 Cys-light C47/C328 kinesin, oxidized (front head crosslink) (from UniProt P33176 1-339) (domain or fragment)

Km(MT) of the steady-state microtubule-activated ATPase, oxidized condition [1]: 0.36 µM
Km(MT) of the steady-state microtubule-activated ATPase, reduced condition [1]: 0.31 µM
k2 (ATP-induced dissociation rate from microtubule, light scattering) [7]: 52.1 s⁻¹
k2 (ATP-induced dissociation rate from microtubule, light scattering) [8]: 59.1 s⁻¹
Substance: Cys-light K339 monomeric kinesin with no cysteine introduction (WT) (from UniProt P33176 1-339) (domain or fragment)

k2 SMF (inverse of the mean dwell time on the microtubule, 1 mM ATP) [5]: 52.1 s⁻¹
Substance: GFP-fused K339 Cys-light C47/C335 kinesin, reduced (from UniProt P33176 1-339) (domain or fragment)

Km(MT) of the steady-state microtubule-activated ATPase, oxidized condition [1]: 8.36 µM
k2 (ATP-induced dissociation rate from microtubule, light scattering) [8]: 80.8 s⁻¹
Substance: Cys-light K339 C4/C330 monomer, oxidized (disulfide-crosslinked between cover strand and neck linker) (from UniProt P33176 1-339) (domain or fragment)

k2 SMF (inverse of the mean dwell time on the microtubule, 1 mM ATP) [5]: 44 s⁻¹
k2 SMF (inverse of the mean dwell time on the microtubule, 1 mM ATP) [6]: 41.6 s⁻¹
Substance: GFP-fused K339 Cys-light kinesin (WT, no cysteine introduction) (from UniProt P33176 1-339) (domain or fragment)

k2 SMF (inverse of the mean dwell time on the microtubule, 1 mM ATP) [5]: 47.2 s⁻¹
Substance: GFP-fused K339 Cys-light C222/C334 kinesin, reduced (from UniProt P33176 1-339) (domain or fragment)

k2 SMF (inverse of the mean dwell time on the microtubule, 1 mM ATP) [6]: 22.5 s⁻¹
Substance: GFP-fused K339 Cys-light C47/C335 kinesin, oxidized (crosslinked) (from UniProt P33176 1-339) (domain or fragment)

Km(MT) of the steady-state microtubule-activated ATPase, reduced condition [1]: 0.23 µM
k2 (ATP-induced dissociation rate from microtubule, light scattering) [7]: 69.3 s⁻¹
Substance: Cys-light K339 C222/C334 monomer, reduced (un-crosslinked) (from UniProt P33176 1-339) (domain or fragment)
